For data set [1] the following is noted: cited from earlier work.
The target of data set [2] is T1, ANXA2 heterotetramer (Homo sapiens, UniProt P07355).
T1 construct: endogenous in cells; host or cells: human monocyte-derived Langerhans cells (from PBL of healthy donors)
As to the kind of experiment: L2108-120 peptide pulldown assay from Langerhans cells (silver stain, mass spectrometry, immunoblot). The class given is binding. The protocol: LC were incubated with either no peptide or 50 μg/5×10^5 cells of 6×His-L2108-120 peptide and subsequently cross-linked with DTSSP. Cells were then lysed and mixed with a Ni-NTA agarose slurry overnight and ten fractions were eluted. Non-reduced eluates were electrophoresed, transferred to nitrocellulose and probed with an anti-ANXA2 antibody or an anti-6×His antibody, followed by a peroxidase-labeled secondary antibody. Antibody binding was detected with enhanced chemiluminescence.
A. LC were incubated with either no peptide or (6×)His-L2108-120 peptide and subsequently cross-linked with DTSSP. Cells were lysed and mixed with a Ni-NTA agarose slurry and eluted. Reduced eluate 5 was electrophoresed and silver stained. The unique band right above ˜39 kDa was isolated and analyzed by mass spectrometry. One representative experiment of two is shown. B. LC were incubated with either no peptide or (6×)His-L2108-120 peptide and subsequently cross-linked with DTSSP. Cells were then lysed and mixed with a Ni-NTA agarose slurry overnight and eluted. Eluates were then electrophoresed, transferred to nitrocellulose and probed with either an anti-ANXA2 or an anti-ANXA2 light chain antibody. […]. One representative experiment of two is shown.
L2108-120 Peptide Pulldown Assay. […] The eluates were collected and analyzed by non-reducing immunoblots and reduced silver stain gels. […]
(In general: In western blotting, separated proteins are transferred to a membrane and probed.)

Data set [3] concerns HPV16L1L2 VLP. As to the kind of experiment: HPV16L1L2 VLP binding assay on Langerhans cells (flow cytometry, H16.V5 antibody). It counts as cell-based, human. Conditions: increasing peptide concentrations (1-100 μg)/0.5×10^6 cells, 1 h at 4° C. The protocol:
LC were incubated with increasing concentrations of the L2108-120 peptide and subsequently incubated with HPV16L1L2 VLP. HPV16L1L2 VLP remaining on the surface of LC were detected using a L1 specific conformational antibody (H16.V5). Binding was assessed by flow cytometry.
HPV16L1L2 VLP Binding Assay. LC were incubated with the HPV16 L2 peptide aa 108-120 ([…] SEQ ID NO: 4) (Kawana et al. (2001) J. Virol. 75: 2331-6) at varying concentrations (1-100 μg)/0.5×10^6 cells for 1 h at 4° C. Subsequently, the LC were incubated with 0.25 μg of HPV16L1L2 VLP/treatment for 1 h at 4° C. and then incubated with an anti-L1 (H16.V5) antibody (a gift from Neil Christensen, Penn State University) at a concentration of 1:25,000 for 30 min at 4° C. The cells were then incubated with biotinylated anti-mouse-IgG2b at a concentration of 1:50 for 30 min at 4° C. Next, the HPV16L1L2 VLP/anti-L1/biotin treated cells were stained with streptavidin-FITC at a concentration of 1:50 for 30 min. The cells were washed between each incubation with 135 μl FACS buffer. In control experiments, cells were left untreated or probed with either peptide/anti-L1/biotin-strepavidin-FITC or VLP/anti-L1/biotin-strepavidin-FITC. Finally, HPV16L1L2 VLP binding to LC was assessed by flow cytometry. Binding is calculated as the MFI of the sample divided by the MFI of the untreated control multiplied by 100.
For orientation: Flow cytometry measures light scatter and fluorescence of single cells or particles in a stream.

For data set [4], the system named is ANXA2. The data set is described as follows: siRNA inhibition of ANXA2 in LC, ANXA2 protein expression by immunoblot. The class given is cell-based, human. Conditions: Amaxa nucleofection. The protocol: (§1) FIGS. 8A & B are gel pictures showing downregulation of ANXA2 inhibits uptake of HPV16L1L2 VLP. A. LC were transfected using the Amaxa Nucleofector kit without siRNA (Untreated), with control siRNA or with two different ANXA2 siRNA sequences. The cells were incubated for 6 days before analysis of ANXA2 protein expression by immunoblot. GAPDH served as the loading control. One representative experiment of three is shown. B. LC were transfected using the Amaxa Nucleofector kit without siRNA (Untreated), with control siRNA or with ANXA2 siRNA #2. The cells were incubated for 6 days and exposed to CFDA-SE labeled HPV16L1L2 VLP for 15 min. Uptake was assessed by flow cytometry.
(§2) siRNA Inhibition of ANXA2 in LC and HPV16 VLP Uptake Assay. ANXA2 siRNA was synthesized at the USC Genomics Core (Los Angeles, Calif.) based on the sequences: ANXA2 siRNA #1 ([…])/([…]) (SEQ ID NO: 5); ANXA2 siRNA #2 ([…])/([…]) (SEQ ID NO: 6). Control siRNA was from (S76). ANXA2 or Control siRNA was transfected into LC using the Amaxa Human Dendritic Cell Nucleofector kit (Lonza) as directed by the manufacturer's instructions. The cells were incubated for 6 days before they were analyzed by an anti-ANXA2 immunoblot and used in an HPV16 VLP uptake assay. HPV VLP were labeled with CFDA-SE as described above. […] Finally, HPV16 VLP uptake by LC was assessed via flow cytometry.

Data set [5] concerns HPV16L1L2 VLP. The data set is described as follows: HPV16L1L2 VLP uptake assay in siRNA-transfected LC (flow cytometry). It counts as cell-based, human. Conditions: 6 days after transfection, VLP 15 min; compared to untreated and control siRNA treated LC. The protocol:
as §1, §2

Data set [6] deals with HPV16L1 VLP. As to the kind of experiment: HPV16 VLP uptake assay with SLPI: uptake of CFDA-SE labeled HPV16L1 VLP by Langerhans cells (flow cytometry). It counts as cell-based, human. Particulars: SLPI 30 ug/ml (optimal concentration), VLP 15 min; Example 2. The protocol: (§3) LC were left untreated or incubated with 30 μg human recombinant SLPI (R&D Systems) for 1 h at 4° C. Subsequently, the cells were washed and incubated with CFDA-SE-labeled HPV16 L1 VLP or HPV16 L1L2 VLP at 37° C. After 15 min, cells were washed at 4° C., then fixed with 1% paraformaldehyde and analyzed for intracellular CFDA-SE by flow cytometry. Percent of VLP uptake was calculated using the following equation: [(MFI experimental plus SLPI)−(MFI background)/[(MFI experimental untreated cells)−(MFI background)]×100. Shown is the average uptake of 3 experiments (±SEM). *p=0.04 compared to untreated LC.
(§4) FIGS. 7A & B are charts showing that SLPI inhibits the uptake of HPV16L1L2 VLP by LC. A. LC were incubated with increasing concentrations of SLPI, then incubated with CFDA-SE labeled HPV16L1L2 VLP for 15 min. Uptake of CFDA-SE labeled HPV16L1L2 VLP by LC was assessed by flow cytometry. The mean percentage of uptake ±SEM of three separate experiments is presented (*P<0.05 by a two-tailed, paired t-test, as compared to the negative control). […] Uptake of CFDA-SE labeled HPV16 VLP by LC was assessed by flow cytometry. […]
(§5) HPV16 VLP Uptake Assay with SLPI. […] Finally, HPV16 VLP uptake by LC was assessed via flow cytometry. Percent uptake is calculated as the mean fluorescent intensity (MFI) of the sample divided by the MFI of the untreated control multiplied by 100.

Data set [7] concerns HPV16L1L2 VLP. The data set is described as follows: HPV16 VLP uptake assay with SLPI: uptake of CFDA-SE labeled HPV16L1L2 VLP by Langerhans cells (flow cytometry). The class given is cell-based, human. The protocol:
as §3, §4, §5

T1 sequence (P07355 2-339 limits assumed): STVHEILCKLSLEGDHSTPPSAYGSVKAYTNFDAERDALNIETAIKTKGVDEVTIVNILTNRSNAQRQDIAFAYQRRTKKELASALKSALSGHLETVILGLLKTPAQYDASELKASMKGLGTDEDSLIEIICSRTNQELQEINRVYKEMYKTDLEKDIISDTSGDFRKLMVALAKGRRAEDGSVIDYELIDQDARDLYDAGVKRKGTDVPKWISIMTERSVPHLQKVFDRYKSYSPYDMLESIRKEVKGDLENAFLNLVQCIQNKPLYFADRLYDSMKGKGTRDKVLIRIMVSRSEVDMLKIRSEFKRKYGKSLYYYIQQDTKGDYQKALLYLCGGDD
T1 sequence (P60903 2-97 partner limits assumed): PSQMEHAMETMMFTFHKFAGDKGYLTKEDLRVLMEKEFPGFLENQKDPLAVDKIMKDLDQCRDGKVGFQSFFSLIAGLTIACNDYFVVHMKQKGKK

For the molecule `CCOCc1nc2c(N)nc3ccccc3c2[nH]1` [CL097], the water solubility in data set [1] was at most 20 mg/mL.
In the case of “(6×)His-L2108-120 peptide: 6×His-tagged HPV16 L2 aa 108-120 peptide used for pulldown (HHHHHHLVEETSFIDAGAP)”, the “protein pulled down from LC, unique silver-stain band identified by mass spectrometry” value in data set [2] (50 μg/0.5×10^6 cells, DTSSP cross-linking, elution 5) was “predicted to be annexin A2 (ANXA2)”.
For the molecule “LVEETSFIDAGAP (listed as Human papillomavirus) [L2108-120 peptide]”, the “proteins in pulldown eluates by immunoblot” value in data set [2] (anti-ANXA2 and anti-ANXA2 light chain antibodies) is “both ANXA2 and ANXA2 light chain were present”. The “HPV16L1L2 VLP bound to the LC surface” value in data set [3] is recorded as “significantly decreased numbers of HPV16L1L2 VLP bound to the LC surface”.
With “(CGGGAUGCUUUGAACAUUGAATT)/(UUCAAUGUUCAAAGCAUCCCGTT) (chemistry not given here) [ANXA2 siRNA #2]”, the “time of optimal ANXA2 protein knockdown post-transfection” value in data set [4] was found to be 6 days. In addition, the “uptake of HPV16L1L2 VLP into LC” value in data set [5] was “significantly reduced the uptake of HPV16L1L2 VLP into LC”.

B1: SLPI: recombinant human secretory leukocyte protease inhibitor (R&D Systems), serine protease inhibitor and ligand of ANXA2; SEQ ID NO: 2 (protein, listed as Homo sapiens)
chain: MKSSGLFPFLVLLALGTLAPWAVEGSGKSFKAGVCPPKKSAQCLRYKKPECQSDWQCPGKKRCCPDTCGIKCLDPVDTPNPTRRKPGKCPVTYGQCLMLNPPNFCEMDGQCKRDLKCCMGMCGKSCVSPVKA
With B1, in data set [6], the “internalization of HPV16L1 VLP by LC” value was “did not inhibit HPV16L1 VLP uptake”. In addition, the “uptake of HPV16L1L2 VLP into LC” value in data set [7] (30 μg SLPI 1 h at 4° C., then VLP 15 min at 37° C., FIG. 2, 3 experiments) is “blocks HPV16 L1L2 VLP uptake into LC”. Further, the “internalization of HPV16L1L2 VLP by LC” value in data set [7] (increasing concentrations (5-30 μg/ml) of SLPI, VLP 15 min, Example 2) is recorded as “LC internalized decreasing amounts of HPV16L1L2 VLP”.

Source of the values: patent US20110086044A1, “Compositions and Methods to Inhibit HPV Infection” (University of Southern California, priority 2009, published 2011).
